From publication doi:10.1101/2025.05.01.651538
Blank lines part the entries; values can stand above or below the substance they belong to.

Experiments:
[1] = molecular target: acidic patch mutant (APM) H3K4me3 147bp nucleosome (human)
[2] = molecular target: acidic patch mutant (APM) H3K4me3 147bp nucleosome (human); experiment: native gel or EMSA; direct binding: 100 nM nucleosome, varying concentrations of KDM5A; 50 mM HEPES pH 7.5, 50 mM KCl, 1 mM BME, 0.01% Tween-20, 0.01% BSA, 5% sucrose; 1 hour on ice; 7.5% gel at 4°C, SYBR gold; fit with Hill slope
[3] = molecular target: acidic patch mutant (APM) unmodified 147bp nucleosome (H2A E61A, E64S, N68A, D72S, N89A, D90A, E91S) (human); experiment: as above
KDM5ACAT = experiment: EMSA; settings: Nucleosome EMSA: 100 nM nucleosome, 50 mM HEPES pH 7.5, 50 mM KCl, 1 mM BME, 0.01% Tween-20, 0.01% BSA, 5% sucrose, 1 h on ice, DNA EMSA: 100 nM DNA, TE …
[4] = molecular target: acidic patch mutant (APM) unmodified 147bp nucleosome (H2A E61A, E64S, N68A, D72S, N89A, D90A, E91S); experiment: EMSA; settings: 0-32 µM KDM5A^MutR titrated against APM 147bp nucleosome

Chain of KDM5A^CAT (KDM5A 1–801, minimal catalytically active construct) (P29375 1-801): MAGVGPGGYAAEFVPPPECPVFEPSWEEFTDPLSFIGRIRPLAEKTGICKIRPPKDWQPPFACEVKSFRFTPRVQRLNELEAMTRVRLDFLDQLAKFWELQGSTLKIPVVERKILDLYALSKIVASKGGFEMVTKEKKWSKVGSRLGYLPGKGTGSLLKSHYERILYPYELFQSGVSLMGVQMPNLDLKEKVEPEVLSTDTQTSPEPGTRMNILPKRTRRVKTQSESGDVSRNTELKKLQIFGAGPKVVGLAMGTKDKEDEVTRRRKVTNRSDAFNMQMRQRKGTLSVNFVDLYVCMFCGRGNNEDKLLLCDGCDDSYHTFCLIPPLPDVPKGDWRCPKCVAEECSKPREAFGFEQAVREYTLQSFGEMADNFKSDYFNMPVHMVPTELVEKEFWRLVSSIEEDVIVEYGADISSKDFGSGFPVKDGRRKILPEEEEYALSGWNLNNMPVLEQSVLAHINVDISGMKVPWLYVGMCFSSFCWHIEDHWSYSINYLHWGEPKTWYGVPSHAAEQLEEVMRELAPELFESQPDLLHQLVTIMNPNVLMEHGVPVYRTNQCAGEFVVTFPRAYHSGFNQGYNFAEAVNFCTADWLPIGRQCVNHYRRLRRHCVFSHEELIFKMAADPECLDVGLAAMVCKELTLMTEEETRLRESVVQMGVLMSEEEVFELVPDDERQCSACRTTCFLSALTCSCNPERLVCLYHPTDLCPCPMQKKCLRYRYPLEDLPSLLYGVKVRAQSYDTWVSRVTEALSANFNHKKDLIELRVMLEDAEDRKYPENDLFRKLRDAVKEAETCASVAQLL

fold decrease in demethylation of H3K4me3 on APM 147bp nucleosomes relative to wild-type nucleosomes, western blot, single turnover (5 μM KDM5A enzyme, 50 nM substrate) [1]: 9 fold
fold lower affinity relative to wild-type H3K4me3 nucleosome [2]: 2 fold
fold loss in affinity relative to wild-type 147bp nucleosome [3]: 3 fold
Substance: KDM5A^CAT (KDM5A 1–801, minimal catalytically active construct) (from UniProt P29375 1-801) (domain or fragment)

Substance: 147bp nucleosome, wild-type unmodified
binding signal (KDM5ACAT; scale: fold higher affinity than APM 147bp nucleosome): 3

Kd [4]: 14 µM
Substance: KDM5A^CAT (KDM5A 1–801, minimal catalytically active construct) (from UniProt P29375) R210A; R217A; R219A; R220A; R232A; R264A; R265A; R266A; R271A; R280A; R282A

Substance: H3K4me3 APM nucleosome
binding signal (KDM5ACAT; H3K4me3, H2A E61A;E64S;N68A;D72S;N89A;D90A;E91S, scale: fold lower affinity vs wild-type H3K4me3 nucleosome): 2

Substance: 147bp APM nucleosome, unmodified
binding signal (KDM5ACAT; H2A E61A;E64S;N68A;D72S;N89A;D90A;E91S, scale: fold loss in affinity vs wild-type 147bp nucleosome): 3
